Test results published in patent US20060246084A1 (MICHIGAN STATE UNIVERSITY, published 2006).
Where two headings read alike, the source gives them in different places.

B1: IFN-γ bound to its receptor (IFN-γR-IFN-γ) on human cells (other)
chain 1: QDPYVKEAENLKKYFNAGHSDVADNGTLFLGILKNWKEESDRKIMQSQIVSFYFKLFKNFKDDQSIQKSVETIKEDMNVKFFNSNKKKRDDFEKLTNYSVTDLNVQRKAIHELIQVMAELSPAAKTGKRKRSQMLFRGRRASQ
chain 2: EMGTADLGPSSVPTPTNVTIESYNMNPIVYWEYQIMPQVPVFTVEVKNYGVKNSEWIDACINISHHYCNISDHVGDPSNSLWVRVKARVGQKESAYAKSEEFAVCRDGKIGPPKLDIRKEEKQIMIDIFHPSVFVNGDEQEVDYDPETTCYIRVYNVYVRMNGSEIQYKILTQKEDDCDEIQCQLAIPVSSLNSQYCVSAEGVLHVWGVTTEKSKEVCITIFNSSIKGSLWIPVVAALLLFLVLSLVFICFYIKKINPLKEKSIILPKSLISVVRSATLETKPESKYVSLITSYQPFSLEKEVVCEEPLSPATVPGMHTEDNPGKVEHTEELSSITEVVTTEENIPDVVPGSHLTPIERESSSPLSSNQSEPGSIALNSYHSRNCSESDHSRNGFDTDSSCLESHSSLSDSEFPPNNKGEIKTEGQELITVIKAPTSFGYDKPHVLVDLLVDDSGKESLIGYRPTEDSKEFS
B2: recombinant human IFN-γ (ligand)
chain: B1 chain 1

How the values were obtained:
[1] = molecular target: T1, LcrV68-326, N-terminally truncated LcrV (Yersinia pestis, UniProt P0C7U7 68-326); experiment: 125I-LcrV68-326 plus unlabelled IFN-γ on U937 cells
[2] = molecular target: T1, LcrV68-326, N-terminally truncated LcrV; experiment: 125I-LcrV68-326 plus unlabelled IFN-γ on human neutrophils
[3] = molecular target: T1, LcrV68-326, N-terminally truncated LcrV; experiment: 125I-LcrV68-326 plus unlabelled IFN-γ on human thymocytes
[4] = molecular target: T1, LcrV68-326, N-terminally truncated LcrV; experiment: 125I-LcrV68-326 plus unlabelled IFN-γ on human monocytes
[5] = molecular target: T1, LcrV68-326, N-terminally truncated LcrV
[6] = molecular target: T2, IFN-γ receptor on human cells (no IFN-γ added) (human, UniProt P15260 18-489); experiment: 125I radioligand binding to human thymocytes
T2 construct: whole, on cells; also called receptors of U937 cells and human neutrophils, monocytes, and thymocytes
T2 sequence: B1 chain 2

[7] = molecular target: T2, IFN-γ receptor on human cells (no IFN-γ …); experiment: 125I radioligand binding to U937 cells
[8] = molecular target: T2, IFN-γ receptor on human cells (no IFN-γ …); experiment: 125I radioligand binding to human neutrophils
[9] = molecular target: T2, IFN-γ receptor on human cells (no IFN-γ …); experiment: 125I radioligand binding to human monocytes

Binder | Kd [1] | Kd [2] | Kd [3] | Kd [4] | Kd [5] | Kd [6] | Kd [7] | Kd [8] | Kd [9]
B1 | 0.8 nM | 0.92 nM | 2.4 nM | 7.2 nM | 0.016 nM | – | – | – | –
B2 | – | – | – | – | – | 0.26 nM | 0.68 nM | 0.93 nM | 0.84 nM
